Patent US20170319688A1 (Genentech, published 2017)

Key:
Assay in all cases: SPR (BIAcore T200), RSPO3 immobilized, antibody injected, 25 C, 1:1 Langmuir
human RSPO3 = molecular target: T1, human RSPO3 (human, UniProt Q9BXY4 22-272)
T1 construct: Recombinant human RSPO3 protein (Genentech); also called huRSPO3; hRSPO3
T1 sequence: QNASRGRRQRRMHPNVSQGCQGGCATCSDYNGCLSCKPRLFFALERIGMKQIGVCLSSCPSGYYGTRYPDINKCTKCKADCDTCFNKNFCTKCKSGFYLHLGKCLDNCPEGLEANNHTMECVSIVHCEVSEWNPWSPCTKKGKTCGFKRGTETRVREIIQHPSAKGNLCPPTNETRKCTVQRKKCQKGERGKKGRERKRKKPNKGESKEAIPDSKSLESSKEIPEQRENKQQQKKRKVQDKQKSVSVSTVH

cynomolgus RSPO3 = molecular target: T2, cynomolgus RSPO3 (cynomolgus, UniProt A0A2K5UTQ7 22-273)
T2 construct: also called cyno RSPO3
T2 sequence: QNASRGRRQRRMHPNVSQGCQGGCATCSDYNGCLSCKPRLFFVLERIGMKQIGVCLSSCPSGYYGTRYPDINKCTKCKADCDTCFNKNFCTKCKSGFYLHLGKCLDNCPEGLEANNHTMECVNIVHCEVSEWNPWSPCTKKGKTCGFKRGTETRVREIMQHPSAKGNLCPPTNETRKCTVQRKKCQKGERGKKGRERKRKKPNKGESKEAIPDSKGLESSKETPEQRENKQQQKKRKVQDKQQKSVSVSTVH

[1] = molecular target: T3, murine RSPO3 (R&D Systems Cat. No. 4120-RS/CF) (murine, UniProt Q2TJ95 22-277, limits assumed)
T3 construct: also called mouse RSPO3
T3 sequence (looked up): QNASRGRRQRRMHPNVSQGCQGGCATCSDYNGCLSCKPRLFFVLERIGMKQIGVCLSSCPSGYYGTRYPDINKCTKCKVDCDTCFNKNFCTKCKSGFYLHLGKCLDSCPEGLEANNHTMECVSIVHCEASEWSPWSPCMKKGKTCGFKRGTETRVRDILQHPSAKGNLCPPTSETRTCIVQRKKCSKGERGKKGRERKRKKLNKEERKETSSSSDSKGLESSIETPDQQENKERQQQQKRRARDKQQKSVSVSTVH

Binder	Kd (human RSPO3) [nM]	koff (human RSPO3) [s⁻¹]	kon (human RSPO3) [M⁻¹ s⁻¹]	Kd (cynomolgus RSPO3) [nM]	koff (cynomolgus RSPO3) [s⁻¹]	kon (cynomolgus RSPO3) [M⁻¹ s⁻¹]	Kd [1] [nM]	koff [1] [s⁻¹]	kon [1] [M⁻¹ s⁻¹]
anti-RSPO3 antibody 5D6 (WO2015/058132) (antibody, V domains shown) VH: EVQLQESGPSLVKPSQTLSLTCSVTGDSITSGYWNWIRKFPGNKFEYMGYISYSGKTYQNPSLKSRISITRDTSKNQYHLQLNSVTTEDTATYYCATYYGYGGPWFAYWGQGTLVTVSA VL: DIVLTQSPSSMYASLGERVTITCKASQDIDSYLSWFQQKPGKSPKTLIYLTNRLVDGVPSRFSGSGSGQDYSLTISSLEYEDMGIYYCLHYDEFPLTFGAGTKLEIK	0.485	0.000127	261000	0.697	0.000321	461000	0.913	0.000326	357000
chimeric 4A6 (antibody, V domains shown, Chimeric counterpart of hu4A6 with the rat 4A6 variable domains) VH: EVQLVESGGGSVQPGRSLKVSCAASGFTFSDYDMAWVRQAPKKGLEWVATIIYDGSRTYYRDSVKGRFTLSRDNTKSTLCLQMDSLRSEDTATYYCAAHDRSFDYWGQGIMVTVSS VL: DIQMTQSPASLSASLGETVSIECLASEDISNDLVWYQQKSGKSPQLLIYAASRLQDGVPSRFSGSGFGTRFSLKISGMQPEDEADYFCQQSYKYLPTFGAGTKLGLK	0.363	5.85e-05	161000	0.174	3.36e-05	194000	0.337	5.22e-05	155000
chimeric 11C10 (antibody, V domains shown, Chimeric counterpart with the rat 11C10 variable domains) VH: EVQLVESGGGLVQPGRSLKLSCAASGFTFSDYDMAWVRQAPKKGLEWVATIIYDGSRTYYRDSVKGRFTISRANAKSTLYLQMDSLRSEDTATYYCATHDKTFDYWGQGVMVTVSS VL: DIQMTQSPASLSASLGETVTIECRASEDIYSDLAWYQQKPGNSPQLLIYDVNSLIHGVPSRFSGSGSGTQFSLKINNLQSEDVASYFCQQYDNYPNTFGAGTKLELK	2.67	0.00113	425000	1.52	0.000963	633000	2.76	0.00107	388000
chimeric 15F3 (antibody, V domains shown, Chimeric counterpart with the rat 15F3 variable domains) VH: EVQLVESGGGLVQPGRSLKLSCAASGFTFSDYDMAWVRQAPKKGLEWVATIIYDGSRAYFGDSVRGRFTVSRDNTKSTLYLQMDSLRSEDTATYYCTAHDRSFDYWGQGVMVTVSS VL: DIQMTQSPASLSASLGETVSIECLVSEDISNDFVWYQQKSGKSPQLLIYAASRLQDGVPSRFSGSGSGTRFSLRISGMQPEDEAEYFCQQSYKYPPTFGAGTKLELK	0.845	0.000151	179000	0.576	0.000121	210000	0.926	0.000156	169000
hu4A6.L4H2 (antibody, V domains shown, CDR graft only (L4, H2); also called humanized 4A6) VH: EVQLVESGGGVVQPGRSLRLSCAASGFTFSDYDMAWVRQAPGKGLEWVATIIYDGSRTYYRDSVKGRFTISRDNSKNTLYLQMNSLRAEDTAVYYCAAHDRSFDYWGQGTMVTVSS VL: DIQMTQSPSSLSASVGDRVTITCLASEDISNDLVWYQQKPGKAPKLLIYAASRLQDGVPSRFSGSGFGTDFTLTISSLQPEDFATYYCQQSYKYLPTFGQGTKLEIK	0.434	8.47e-05	195000	0.247	5.95e-05	241000	0.441	8.08e-05	183000
hu11C10.L5H1 (antibody, V domains shown, CDR graft light chain L5 with H1; also called humanized 11C10) VH: EVQLVESGGGVVQPGRSLRLSCAASGFTFSDYDMAWVRQAPGKGLEWVATIIYDGSRTYYRDSVKGRFTISRDNSKNTLYLQMNSLRAEDTAVYYCATHDKTFDYWGQGTMVTVSS VL: DIQLTQSPSSLSASVGDRVTITCRASEDIYSDLAWYQQKPGKAPKLLIYDVNSLIHGVPSRFSGSGSGTDFTLTISSLQPEDFATYYCQQYDNYPNTFGQGTKLEIK	3.01	0.00145	480000	1.75	0.00121	695000	3.22	0.00138	429000
hu15F3.L4H2 (antibody, V domains shown, CDR graft only (L4, H2); also called humanized 15F3) VH: EVQLVESGGGVVQPGRSLRLSCAASGFTFSDYDMAWVRQAPGKGLEWVATIIYDGSRAYFGDSVRGRFTISRDNSKNTLYLQMNSLRAEDTAVYYCTAHDRSFDYWGQGTMVTVSS VL: DIQMTQSPSSLSASVGDRVTITCLVSEDISNDFVWYQQKPGKAPKLLIYAASRLQDGVPSRFSGSGSGTDFTLTISSLQPEDFATYYCQQSYKYPPTFGQGTKLEIK	0.839	0.000164	196000	0.466	0.000116	248000	0.775	0.000147	190000
